# In US20200155714A1, “DUAL-TARGET IMAGING MOLECULAR PROBE, PREPARATION METHOD THEREFOR, AND APPLICATIONS THEREOF” (PEKING UNION MEDICAL COLLEGE HOSPITAL, CHINESE ACADEMY OF …, priority 2017, published 2020):
# Design: species or system mice
# Settings: mouse, in vivo
# From the text: {circumflex over (4)} Biodistribution of ^68Ga-NOTA-3PEG4-TATE-RGD in Healthy Mice
# There was small amount of uptake in the heart, liver and lungs, which decreased quickly over time.
smiles,measurement,value
"CC(O)[C@@H]1NC(=O)[C@H](CCCCN)NC(=O)[C@@H](Cc2c[nH]c3ccccc23)NC(=O)[C@H](Cc2ccc(O)cc2)NC(=O)[C@@H](NC(=O)[C@@H](Cc2ccccc2)NC(=O)COCCOCCOCCOCCNC(=O)C(CCC(=O)NCCOCCOCCOCCOCC(=O)NCCCC[C@@H]2NC(=O)[C@@H](Cc3ccc(O)cc3)NC(=O)[C@H](CC(=O)O)NC(=O)CNC(=O)[C@H](CCCNC(=N)N)NC2=O)NC(=O)COCCOCCOCCOCCNC(=S)Nc2ccc(CC3CN(CC(=O)O)CCN(CC(=O)O)CCN3CC(=O)O)cc2)CSSC[C@@H](C(=O)N[C@H](C(=O)O)[C@@H](C)O)NC1=O (stereo partly drawn) [^68Ga-NOTA-3PEG4-TATE-RGD, metal not drawn]","clearance from blood, heart and liver","cleared from the blood, heart and liver faster"
same,distribution in brain tissues / blood-brain barrier passage,could not pass through the blood-brain barrier
same,route of excretion,mainly excreted through the kidneys
